# Results as given in US20090191211A1 (ONCOTHERAPY SCIENCE, published 2009).
# B1: anti-EphA4 human antibody 336 (antibody, V domains shown)
# VH: QVQLQQSGPGLVKPSQTLSLTCAISGDSVSSNSAAWNWIRQSPSRGLEWLGRTYYRSKWYNDYAVSVKSRITINPDTSKNQFSLQLNSVTPEDTAVYYCARDSLRSFDYWGQGTLVTVSS
# VL: QSVLTQPPSVSAAPGQKVTISCSGSSSNIGNNYVSWYQQLPGTAPKLLIYDNNKRPSGIPDRFSGSKSGTSATLGITGLQTGDEADYYCGTWDSSLSAVVFGGGTKLTVLG
# B2: anti-EphA4 human antibody 65 (antibody, V domains shown)
# VH: QVQLVQSGAEVKKPGASVKVSCKVSGYTLTELSMHWVRQAPGKGLEWMGGFDPEDGETIYAQKFQGRVTMTEDTSTDTAYMELSSLRSEDTAVYYCATAQPFHWGDDAFDIWGQGTMVTVSS
# VL: not shown
# notes: also called clone 65
# Target: T1, EphA4 (Eph receptor A4) (human, UniProt P54764 20-986)
# T1 construct: Endogenous EphA4 on the human pancreatic cancer cell line MIAPaca-2 (over-expressing); also called EpbA4
# Assay: flow cytometry on EphA4 over-expressing MIAPaca-2 cells
# Method: Cancer cells (5×10⁶) were incubated at 4° C. for 30 minutes with the purified polyclonal antibody (pAb), monoclonal antibodies (mAb), rabbit IgG (the control for pAb) or mouse IgG (the control for mAb). Cells were washed with phosphate buffer solution (PBS) and then incubated at 4° C. for 30 minutes in FITC-labeled Alexa Fluor 488. The cells were again washed in PBS, and analyzed on a flow cytometer (FACSCalibur®, Becton Dickinson) and then analyzed by BD CellQuest™ Pro software (Becton Dickinson). Mean fluorescence intensity (MFI) was defined as a ratio of the flow cytometric intensity (intensity by each protein specific antibody/intensity by rabbit IgG).
# Using EphA4 over-expressing cells, the binding ratios of anti-EphA4 antibodies on the cell surface were investigated.
# T1 sequence (P54764 20-986): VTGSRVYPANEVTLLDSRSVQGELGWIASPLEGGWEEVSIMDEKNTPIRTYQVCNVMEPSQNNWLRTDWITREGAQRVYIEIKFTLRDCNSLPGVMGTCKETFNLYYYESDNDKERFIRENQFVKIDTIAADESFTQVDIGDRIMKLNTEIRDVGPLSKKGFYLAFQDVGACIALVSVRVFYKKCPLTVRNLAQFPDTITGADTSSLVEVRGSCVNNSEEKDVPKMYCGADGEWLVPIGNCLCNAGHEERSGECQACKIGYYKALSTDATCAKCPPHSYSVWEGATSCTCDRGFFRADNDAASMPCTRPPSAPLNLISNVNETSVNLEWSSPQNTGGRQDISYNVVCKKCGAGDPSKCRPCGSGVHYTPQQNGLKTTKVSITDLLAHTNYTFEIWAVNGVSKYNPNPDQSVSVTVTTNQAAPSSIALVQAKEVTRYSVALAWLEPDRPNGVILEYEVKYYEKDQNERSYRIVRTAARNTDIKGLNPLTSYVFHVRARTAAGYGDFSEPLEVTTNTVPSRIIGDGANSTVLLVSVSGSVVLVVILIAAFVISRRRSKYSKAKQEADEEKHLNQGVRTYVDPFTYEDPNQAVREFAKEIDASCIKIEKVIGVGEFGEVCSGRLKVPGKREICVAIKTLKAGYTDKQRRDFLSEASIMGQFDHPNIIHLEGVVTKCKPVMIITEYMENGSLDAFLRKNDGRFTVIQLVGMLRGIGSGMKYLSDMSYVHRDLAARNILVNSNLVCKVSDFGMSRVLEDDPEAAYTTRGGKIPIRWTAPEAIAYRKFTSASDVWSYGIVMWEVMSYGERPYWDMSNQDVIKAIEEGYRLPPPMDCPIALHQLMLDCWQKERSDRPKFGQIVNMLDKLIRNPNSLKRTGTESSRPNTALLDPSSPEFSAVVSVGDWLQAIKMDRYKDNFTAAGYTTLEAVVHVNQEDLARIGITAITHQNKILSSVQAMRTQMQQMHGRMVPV
row,MFI,Binder
1,15.5 ratio (intensity by specific antibody / intensity by control IgG),B1
2,12.6 ratio (intensity by specific antibody / intensity by control IgG),B2
